Results published in the DeepSol protein solubility set.

Experiment: soluble on expression in E. coli; label from the status in PepcDB or PDB records

Sequence: MAHHHHHHSLALIVKIGGSIQKDEKDYELIVKKIQDFSKKSDKIIVVTSAIKNVTNELISATSNTDNSPNIVTEIYERHIKLLSKLADGKEFENSFKDISRLSDELFRVAWSIRVLDEVTPRVRDYILSFGERMATLLLSAILRSNGIEAEGIITPPFLTDENYGEANVIEDLSKNEIANILENAKANVIVLPGFIGRTREGRYTTLGRGGSDYTATLLGKLVGVREVRLVTEVPGIMTGDPKKFENAKTISRLSLEEAIELSQLGAKRLHPRTFDPVFGSDMKVIVESLYEDGFTIINGECQNNDGLKGISLLDNAKLITVESTKIVGKIGSAARITNEAKEAGVNIISISQPASETTIQLVVDSLSANRLLSKLEEIRGTLVKDIEVNDINIVGIVGCGIKKKEISTKVLSIASSYDPLAISRGISNVSMTFIVNKDEGEKLAKELHKVIVSGEG
- soluble on expression in E. coli: soluble

Sequence: MGSSHHHHHSSGENLYFQGHMKHGIYYSYWEHEWSAKFGPYIEKVAKLGFDIIEVAAHHINEYSDAELATIRKSAKDNGIILTAGIGPSKTKNLSSEDAAVRAAGKAFFERTLSNVAKLDIHTIGGALHSYWPIDYSQPVDKAGDYARGVEGINGIADFANDLGINLCIEVLNRFENHVLNTAAEGVAFVKDVGKNNVKVMLDTFHMNIEEDSFGDAIRTAGPLLGHFHTGESNRRVPGKGRMPWHEIGLALRDINYTGAVIMEPFVKTGGTIGSDIKVWRDLSGGADIAKMDEDARNALAFSRFVLGG
- soluble on expression in E. coli: soluble

Sequence: MHHHHHHSSGLVPRGSGMKETAAAKFERQHMDSPDLGTDDDDKAMAGTPSKPAEPIGPVFTKLKPWQIPKRDWFDKDFLFGASTSAYQIEGAWNEDGKGPSTWDHFCHTYPERISDMTNGDVAANSYHLYEEDVKALKDMGMKVYRFSISWSRILPDGTGKVNQAGIDYYNKLINSLIDNDIVPYVTIWHWDTPQALEDKYGGFLNRQIVDDYKQFAEVCFKNFGDRVKNWFTFNEPHTYCCFSYGEGIHAPGRCSPGMDCAVPEGDSLREPYTAGHHILLAHAEAVQLFKARYNMHGDSKIGMAFDVMGYEPYQDSFLDDQARERSIDYNMGWFLEPVVRGDYPFSMRSLIGDRLPMFTKEEQEKLASSCDIMGLNYYTSRFSKHVDMSPDFTPTLNTDDAYASSETTGSDGNDIGPITGTYWIYMYPKGLTDLLLIMKEKYGNPPVFITENGIADVEGDESMPDPLDDWKRLDYLQRHISAVKDAIDQGADVRGHFTWGLIDNFEWSLGYSSRFGLVYIDKNDGNKRKLKKSAKWFSKFNSVPKPLLKTTNNNATMTAASVSV
- soluble on expression in E. coli: soluble

Sequence: MNMKATALTATTVAIASLLPSMGETNVQKANAEQLSNIKTGYVKVDQVALHTEDNVKSTSIDTIRFNTKVNIIETTNGWYKVSVHNKVGYVQKDAILLKNKLQSNDQYIVNANALNVRSEPNLESSILDVLPNGKFITVQEDQGEWYKISHNGQTGYVQKAFISNGSQPLVKGITVQNNTKYTVATPNLNVRSTASTSSALLGSLQNGTQVQVVETVGTWYKIRFGTGYGYVAKHYVVQNQPQAKTDQPSSIPAAFKFPAQGRISSTFDIRWEQMHYGIDIAAPGNVSIQAAAAGKVVKSYYSASYGNVVFIAHQINGKLYTTVYAHMKDRTVQAGDQVQTGQLIGHMGNTGHSYGQHLHCELHNGEWNFEKTDAVNPLPYLVRLEHHHHHH
- soluble on expression in E. coli: soluble

Sequence: MYGSEGGAMRIVAGVGENRNMERAASLADFEVDLVHSEEEFIEELRRGAAAYVRGSLPAANIMAELKKGGPLNRASWIEVGANGFLLAPVGIDEGRTVDDRFKIAVSASEFLRKTGEEPRVGVISGGRRGDLGRSPEVDRSIHEGEFLTSMIKDKYRVRHYHILIEEAVADGCNVIIAPDGITGNLIFRSLVLVGTARSYGAVALGFDGIFVDTSRSQTAEGYLRALKFAHWLARGWNEDNE
- soluble on expression in E. coli: soluble

Sequence: MSCMGAAVNIITTDGPAGRAGFTASAVCSVTDTPPTLLVCLNRGASVWPVFNENRTLCVNTLSAGQEPLSNLFGGKTPMEHRFAAARWQTGVTGCPQLEEALVSFDCRISQVVSVGTHDILFCAIEAIHRHTTPYGLVWFDRSYHALMRPAC
- soluble on expression in E. coli: not soluble

Sequence: MSLEPKIVRFDLGKEYIILTSALYPEGIIRVNQICSIFVDKSYCSGNPWGDVINWCPSKSAIMFMTAAKNYTFKETDWGKFFISAGIGRSGEDAGCTINIGVFVDKGLNINGLVDLIRTVTEAKAGALRDLGYKFTGTVSDAIAVGSLPGNEYFIGPGTELGKKIAYDIRNTIVELLFKGDDEGHHHHHH
- soluble on expression in E. coli: soluble

Sequence: MSLRNPIRIFIVDDHEIVRQGLKVIINQEQDFELVGESNGQKGLLKEIAEAHPDVLLLDIRISGSDGFDIASQLNEKFPSIKILIISGYESELYLVEALDHKVSGFIPKGSSRDYVCSAIRMVALGGTVWHGELLYRVIRGLSRLGNEPNDTKVQIGKSHLKPRELKVLSLLAKGKLNKEICFELQISMDTVKKDIHQLKSKYGVFNRTQLATIATEMQLKEGHHHHHH
- soluble on expression in E. coli: not soluble

Sequence: MRIVYCISGTCNSGGMERVLSNKANYLAAHGYEVTIVTTDQRGRRPFFALDGRIECVDLDVNYETNNGKSFFNKLVHYPFKQLKHKRRLTKVLNLIKPDITVSMFCNDVAFLPSIQDGSKKVLEVHFSRFKRLQYDRKGLWRLADKWRNRNEQRQVACFDKFVVLTHEDKDYWEGHANIEVIPNAQTFACDVPAALESKTVVAVGRYTYQKGFDMLLRAWRRVCDSIDDWQLHIVGEGEMKESLQQQILDLSLEDRVELCPATSDIQSVYREASVLVLSSRYEGFGMVLLEAQTAGVPTVSFDCKCGPSDIVADGVTGYLVPANDIPALAEKLLVLMRDETLRKQMGRNAFADASRFSEKAVMQRWTDLFENFR
- soluble on expression in E. coli: not soluble

Sequence: MELTAVPATQFSSVQLTDILNACFEAYLVPVTQSVEGFVQRFSAEGMSLVDSRVWLAGDEPAAIAIVARRGSAARLAAFALRPAWRGKGLGRKLMQELLMLLQQQGIETVYLEVIRDNHAAVALYQSLGFTRRYGLCGYLSTELLAPVPGVLQLYPTLSLLRRAIEESNSQLPWLLDPLTFATLPCQVVTLEQRAFAVLTTAGSRPVLSFLWVEPAARRQGLARELLMALAQQFPGIGTSVTVPETFTPLFAAAGYTPLSLQQYEMTMDLADAKSA
- soluble on expression in E. coli: not soluble

Sequence: GEIYDEHDEVEAVQTLDNNTWLVLPNVKAAFFFNKWIKRDLVKSKNMTIQRYLASFENDGLNTQNKLETPWFIAEAIVDSENPEQIRYEIRKKSDVVD
- soluble on expression in E. coli: soluble

Sequence: MEYHSHTVVTERKVTLLEQGQASDLTDYVANEVRVALVYNGISHTVMLASPENLEEFAIGFTLSERIVSHVNEIKGVDLEFTPEGVLIQVEITQRCFMALKQLRRNMAGRTGCGLCGVAQLEEAVKPVIRVDSDARFNIDHLQFALEQVKDNQHHFKLTGATHAAMGLDLEGQIIAAYEDIGRHIALDKLIGGCSMRHAKRPVAVLLTSRASFEMVQKAASANIQILFAMSAVTSLALELAEKSNITLIGFCRNGRATLYTHGYRLLGLNRASLAKAIAAALEHHHHHH
- soluble on expression in E. coli: not soluble

Sequence: MMWKQAMTDVAEKTLTNIKRFNGRFPHVSEDGEHYELNNNNEWTNGFWSGILWLCYEYTNDPAFRQAAASTVRSFQQRMEQNLELDHHDIGFLYSLSSKAQWIIERDERAKQLTIEAADVLMKRWREKIELFQAWGPEGDLSNGGRIIVDCLMNLPLLFWASEVTGNPDYREAAIIHADKTRRFIVRGDDSTYHTFYFNQETGEALRGGTHQGYEDGSTWSRGQAWAIYGFAIAYRYTGNERYLETAKRTAKYFIENLPADYVAYWDFNAPITPDTKRDSSASAIASCGILELLSHLQETDPDKAFFQQSVQKQMTSLVENYASEKDAQGLIKRGSYSVRIGHAPDDYVIWGDYFYTEALMRLEKLRNGYWYEGKLEHHHHHH
- soluble on expression in E. coli: soluble

Sequence: MGSDKIHHHHHHMREVFQRLKQAILEKQDTMLLTIGTSSGSTPRSQGARMLVSAEGRIAGTVGGGAVEFQAEQVAKKLVLEKENAQRQFILAPNNIADLGMVCGGNVTIFFHYLSWETPFLKELCESIETHFQNNQQGWLVTELDQNNLGKVSFYSETGELIGSTSWEGELSLLPKGIHCEQKEDIIFLTEAILQVGKVYIFGSGHVARALVPILNYLSFYCVVVDDRPEFLTAQAFPQAEELRVIPLENLAAFIEITADDYGIVITRGHNFDFIVAKQLLETPAKYIGVMGSKHKIASQVRRLKEVGYTMTEIERIFMPIGLDIAAETPEELAISIAGELIQQRYQ
- soluble on expression in E. coli: not soluble

Sequence: MKVAVLGATGKEGQLLLAEAKRRGMDVTAIVRNASKITDGTPTIEKDVYQLTTEDIQAFDVLISALGFPDVQDFPKSTQHLIEILTNQKTRLFVVGGAGTLYVDPEHTTQLKDTPSFPAEIQPLASAMGEALNLLKEAQNIHWTYISPAAMFDADGPATGHYEVAGEELTTNSQGDSYISYADYAVAMLDEVESNAHPNQRISVYQLEHHHHHH
- soluble on expression in E. coli: soluble

Sequence: MARLTVHTLETAPEAAKARVEAVLQNNGFIPNLIGVLSNAPEALAFYQEVGKLNAANSLTAGEVEVIQIIAARTNQCGFCVAGHTKLATLKKLLSEQSVKAARALAAGEFDDAKLGALAAFTQAVMAKKGAVSDEELKAFFDAGYNQQQAVEVVMGVALATLCNYVNNLGQTEINPELQAYA
- soluble on expression in E. coli: soluble

Sequence: MAELILNQRPYPRDLGKIVCVGRNYAAHAKELNNPIPSSPILFIKPASSAVPFGPVFSIPKDQGSVHHELEIAILIGKALSRASTEQVAESIAGIGLGLDLTLRDVQDQLKEKGHPWERAKSFDGACPLTEFVAVNLASEDEWQAIGLTLEKNGQFQQQGSSAEMLFPILPLIAHMSEHFSLQPGDVILTGTPAGVGPLEVGDSLSAKLSLEDNVLLTCDGVVI
- soluble on expression in E. coli: soluble

Sequence: MSALASKLFAKCAAGGRALQSQAVRQFSAYPIDDSMFGLNDEEIALRQSIRQFADKELAPYADKIDKDNGWDQLRPFWKKLGDQGLLGITAPAEYGGSGMNYFSHVIAMEELSRAAGGIALSYGAHSNLCINQIVRNGSEEQRKKYLPKLISGEHMGALAMSEAQAGSDVVSMKLRAEKKGDKYVLNGTKFWITNGPDADVLVVYAKTDPSKHQHGITCFLVEKNTPGFSQSPKLDKLGMRGSNTCELVFDNCEIHESQIMGGKGKGVYVLMTGLDYERLVLSGGPLGLMQAACDIAFDYAHQRTAFGQKIGSFQLLQGKLADMYTTLNASRSYLYMVAKAADKGNVSNKDCAGVILYVAEKCTQVCLDAIQILGGNGYINDYPAGRLLRDAKLYEIGAGTSEVRRLIIGRALNKEYSN
- soluble on expression in E. coli: not soluble

Sequence: MGSDKIHHHHHHMVKRMHCNINLKYGVIMKKDCYTLRISLKPGFINAEQLKAIAYVIENFGDNKAHITTRQGIEFKISPEHLEEVEKILNNVGLNLGSTGNRVRQVVSCIGLECYNAIGDSVSLARRIHEEFEGVWVPRKVKINVSGCPNSCTFHRFCDIGICYRYKITINKEICTNCGKCKDFCDLNAIDWERKIIKDNCTGEGKCTGLCNAFKAERVISIFVGGKGGRIYKEGKHLIDLKNEDDVLFVIDELISLYAKFGKGRMADFVENYGIENLRNNIKELIK
- soluble on expression in E. coli: not soluble

Sequence: GPGSMMLQPWLRRGSGATQKYVNGEFKDVPQGDALLVCVPEAHTWFSLHKMLCDPECRRRYPYTQSKKELILRIRRFLNDTLVDQIPALASVQRALEELSFMQPPSDTEAKFKSSLTIEQVPRIMAAVEASRTHSWEDVANTFAAMLKDPRIKNEDAMRMARIFDEMFAENERPK
- soluble on expression in E. coli: not soluble

Sequence: MAHHHHHHMACDDSTKRNAAAVNRLLQKTRAATAPNSQWLNSITRREDGTLSNELHLSNQQRLACEMGVFPKGHFGDVEIEEENPQRSCHALAQRRARHEWKTDEEAKRRLQIGRGEVCNKRELRAAARREAAILRYEMTLPRRRVVGHLSHLMPAQADASLAVPTEGAADALVEKGCGRWVLHNSYRQQLLHGEPVMTRIMRGEFYETKPPPQRKKKVWAAGKRHVRMTSEVNRLMNTGGWCR
- soluble on expression in E. coli: not soluble
